Laboratory results taken from patent US11857609B2, “Ocular delivery of cell permeant therapeutics for the treatment of retinal edema” (The Trustees of Columbia University in the City of New York, dated 2024).

Tests used:
[1] = biological target: T1, activated (cleaved) caspase-9 from mouse retina (mouse, UniProt Q8C3Q9); assay: co-immunoprecipitation from mouse retina lysates after RVO and Pen1-XBIR3: anti-His IP, western blot for clCasp9, 4 h
From the text: (§1) To show target engagement, after RVO, mice were given Penl-XBIR3 and retinas were harvested and immunoprecipitated with anti-His followed by western blot for clCasp9 (FIG. 5, right panel).

[2] = biological target: T1, activated (cleaved) caspase-9 from …; assay: co-immunoprecipitation from mouse retina lysates after RVO and Pen1-XBIR3: anti-His IP, western blot for clCasp9, 24 h
From the text: as §1

fold increase in binding [1]: 21 fold
fold increase in binding [2]: 45 fold
B1: Penetratin1-XBIR3 conjugate (other)
chain 1: CRQIKIWFQNRRMKWKK
chain 2: MGSSHHHHHHSSGLVPRGSHMSTNTCLPRNPSMADYEARIFTFGTWIYSVNKEQLARAGFYTDWALGEGDKVKCFHCGGGLRPSEDPWEQHARWYPGCRYLLEQRGQEYINNIHLTHS
modifications: N-terminal C(NPys) as printed; linked to XBIR3 by a disulfide bond (-s-s-); linked to Penetratin1 by a disulfide bond
